The results in this text go back to the Human Domainome abundance scans (Beltran et al. 2025).

± gives the uncertainty stated by the source.

To fix the notation:
B1: POU domain, class 3, transcription factor 2, residues 356 to 411; numbered along this chain, P20265 (parent)
chain: KKRTSIEVSVKGALESHFLKCPKPSAQEITSLADSLQLEKEVVRVWFCNRRQKEKR

The variants in the data set derive from B1. Kind of data set: abundance fitness (aPCA) (normalised: wild type 0, dead -1); higher = more abundant; growth selection in yeast, the domain comes from the species named. The settings on record: Homo sapiens.
Regarding KKRTSCEVSVKGALESHFLKCPKPSAQEITSLADSLQLEKEVVRVWFCNRRQKEKR [I6C], the abundance fitness is -0.172 ± 0.11.
For the variant KKRTSEEVSVKGALESHFLKCPKPSAQEITSLADSLQLEKEVVRVWFCNRRQKEKR [I6E], the abundance fitness is -0.091 ± 0.15.
KKRTSPEVSVKGALESHFLKCPKPSAQEITSLADSLQLEKEVVRVWFCNRRQKEKR [I6P]: the abundance fitness was -0.213 ± 0.16.
Turning to KKRTYIEVSVKGALESHFLKCPKPSAQEITSLADSLQLEKEVVRVWFCNRRQKEKR [S5Y], the abundance fitness was -0.183 ± 0.17.
In the case of KKRTVIEVSVKGALESHFLKCPKPSAQEITSLADSLQLEKEVVRVWFCNRRQKEKR [S5V], the abundance fitness came to 0.229 ± 0.096.
For the variant KKRTPIEVSVKGALESHFLKCPKPSAQEITSLADSLQLEKEVVRVWFCNRRQKEKR [S5P], the abundance fitness turned out to be 0.007 ± 0.11.
Turning to KKRTTIEVSVKGALESHFLKCPKPSAQEITSLADSLQLEKEVVRVWFCNRRQKEKR [S5T], the abundance fitness is 0.173 ± 0.1.
With KKRTGIEVSVKGALESHFLKCPKPSAQEITSLADSLQLEKEVVRVWFCNRRQKEKR [S5G], the abundance fitness stood at 0.024 ± 0.072.
Then KKRTMIEVSVKGALESHFLKCPKPSAQEITSLADSLQLEKEVVRVWFCNRRQKEKR [S5M], with -0.018 ± 0.12.
On to KKRTWIEVSVKGALESHFLKCPKPSAQEITSLADSLQLEKEVVRVWFCNRRQKEKR [S5W], for which the abundance fitness is -0.313 ± 0.11.
On to KKRTHIEVSVKGALESHFLKCPKPSAQEITSLADSLQLEKEVVRVWFCNRRQKEKR [S5H], for which the abundance fitness is 0.095 ± 0.17.
In the case of KKRTRIEVSVKGALESHFLKCPKPSAQEITSLADSLQLEKEVVRVWFCNRRQKEKR [S5R], the abundance fitness is -0.105 ± 0.068.
On to KKRTAIEVSVKGALESHFLKCPKPSAQEITSLADSLQLEKEVVRVWFCNRRQKEKR [S5A], for which the abundance fitness is -0.001 ± 0.12.
For KKRTFIEVSVKGALESHFLKCPKPSAQEITSLADSLQLEKEVVRVWFCNRRQKEKR [S5F], the abundance fitness is -0.053 ± 0.18.
Consider KKRTIIEVSVKGALESHFLKCPKPSAQEITSLADSLQLEKEVVRVWFCNRRQKEKR [S5I], for which the abundance fitness turned out to be 0.118 ± 0.16.
Turning to KKRTCIEVSVKGALESHFLKCPKPSAQEITSLADSLQLEKEVVRVWFCNRRQKEKR [S5C], the abundance fitness amounted to 0.033 ± 0.096.
For KKRTKIEVSVKGALESHFLKCPKPSAQEITSLADSLQLEKEVVRVWFCNRRQKEKR [S5K], the abundance fitness was 0.14 ± 0.12.
Next, KKRTLIEVSVKGALESHFLKCPKPSAQEITSLADSLQLEKEVVRVWFCNRRQKEKR [S5L]: 0.002 ± 0.085; KKRTQIEVSVKGALESHFLKCPKPSAQEITSLADSLQLEKEVVRVWFCNRRQKEKR [S5Q]: 0.095 ± 0.14.
Turning to KKRTDIEVSVKGALESHFLKCPKPSAQEITSLADSLQLEKEVVRVWFCNRRQKEKR [S5D], the abundance fitness was -0.174 ± 0.15.
As to KKRGSIEVSVKGALESHFLKCPKPSAQEITSLADSLQLEKEVVRVWFCNRRQKEKR [T4G], the abundance fitness is -0.198 ± 0.088.
On to KKRMSIEVSVKGALESHFLKCPKPSAQEITSLADSLQLEKEVVRVWFCNRRQKEKR [T4M], for which the abundance fitness was -0.015 ± 0.1.
Regarding KKRYSIEVSVKGALESHFLKCPKPSAQEITSLADSLQLEKEVVRVWFCNRRQKEKR [T4Y], the abundance fitness was -0.209 ± 0.14.
Take KKRISIEVSVKGALESHFLKCPKPSAQEITSLADSLQLEKEVVRVWFCNRRQKEKR [T4I]: the abundance fitness came out at 0.053 ± 0.15.
In the case of KKRPSIEVSVKGALESHFLKCPKPSAQEITSLADSLQLEKEVVRVWFCNRRQKEKR [T4P], the abundance fitness is -0.101 ± 0.12.
On to KKRHSIEVSVKGALESHFLKCPKPSAQEITSLADSLQLEKEVVRVWFCNRRQKEKR [T4H], for which the abundance fitness is -0.363 ± 0.13.
On to KKRLSIEVSVKGALESHFLKCPKPSAQEITSLADSLQLEKEVVRVWFCNRRQKEKR [T4L], for which the abundance fitness was -0.199 ± 0.085.
As for KKRSSIEVSVKGALESHFLKCPKPSAQEITSLADSLQLEKEVVRVWFCNRRQKEKR [T4S], the abundance fitness was -0.029 ± 0.081.
Consider KKRFSIEVSVKGALESHFLKCPKPSAQEITSLADSLQLEKEVVRVWFCNRRQKEKR [T4F], for which the abundance fitness stood at 0.126 ± 0.23.
Then KKRWSIEVSVKGALESHFLKCPKPSAQEITSLADSLQLEKEVVRVWFCNRRQKEKR [T4W], with -0.546 ± 0.12; and KKRKSIEVSVKGALESHFLKCPKPSAQEITSLADSLQLEKEVVRVWFCNRRQKEKR [T4K], with -0.267 ± 0.14.
Then KKRVSIEVSVKGALESHFLKCPKPSAQEITSLADSLQLEKEVVRVWFCNRRQKEKR [T4V], with -0.095 ± 0.087; and KKRQSIEVSVKGALESHFLKCPKPSAQEITSLADSLQLEKEVVRVWFCNRRQKEKR [T4Q], with -0.107 ± 0.14.
Take KKRNSIEVSVKGALESHFLKCPKPSAQEITSLADSLQLEKEVVRVWFCNRRQKEKR [T4N]: the abundance fitness is -0.032 ± 0.16.
Next, KKRRSIEVSVKGALESHFLKCPKPSAQEITSLADSLQLEKEVVRVWFCNRRQKEKR [T4R]: -0.356 ± 0.074; KKRTSIEVRVKGALESHFLKCPKPSAQEITSLADSLQLEKEVVRVWFCNRRQKEKR [S9R]: 0.108 ± 0.1.
For the variant KKRTSIEVLVKGALESHFLKCPKPSAQEITSLADSLQLEKEVVRVWFCNRRQKEKR [S9L], the abundance fitness is -0.153 ± 0.11.
Regarding KKRTSIEVKVKGALESHFLKCPKPSAQEITSLADSLQLEKEVVRVWFCNRRQKEKR [S9K], the abundance fitness was 0.109 ± 0.12.
Turning to KKRTSIEVGVKGALESHFLKCPKPSAQEITSLADSLQLEKEVVRVWFCNRRQKEKR [S9G], the abundance fitness amounted to 0.046 ± 0.074.
Then KKRTSIEVIVKGALESHFLKCPKPSAQEITSLADSLQLEKEVVRVWFCNRRQKEKR [S9I], with -0.197 ± 0.17.
Next, KKRTSIEVFVKGALESHFLKCPKPSAQEITSLADSLQLEKEVVRVWFCNRRQKEKR [S9F]: -0.366 ± 0.1.
Next, KKRTSIEVNVKGALESHFLKCPKPSAQEITSLADSLQLEKEVVRVWFCNRRQKEKR [S9N]: -0.198 ± 0.12.
Turning to KKRTSIEVMVKGALESHFLKCPKPSAQEITSLADSLQLEKEVVRVWFCNRRQKEKR [S9M], the abundance fitness was -0.025 ± 0.14.
With KKRTSIEVHVKGALESHFLKCPKPSAQEITSLADSLQLEKEVVRVWFCNRRQKEKR [S9H], the abundance fitness came to 0.057 ± 0.24.
Then KKRTSIEVQVKGALESHFLKCPKPSAQEITSLADSLQLEKEVVRVWFCNRRQKEKR [S9Q], with 0.1 ± 0.21; and KKRTSIEVEVKGALESHFLKCPKPSAQEITSLADSLQLEKEVVRVWFCNRRQKEKR [S9E], with 0.046 ± 0.12.
For KKRTSIEVPVKGALESHFLKCPKPSAQEITSLADSLQLEKEVVRVWFCNRRQKEKR [S9P], the abundance fitness was -0.041 ± 0.19.
